± gives the uncertainty stated by the source.

The series is described as follows: amyloid nucleation score (Sup35N fusion, yeast selection) (log enrichment); library NNK3; higher = more nucleation; inactive = no reads after selection. The procedure, abridged: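 Nucleation score is defined as the DiMSum log enrichment of output over input reads, with centring on the mode score of non-aggregating sequences. A minimum of 100 input reads was required for each sequence. Reads came from Illumina sequencing of plasmid inserts from psi-negative yeast expressing Sup35N fused to peptides of 20 random codons, induced with 100 μM copper sulfate for 24 hours and grown 7 days at 30°C on medium lacking adenine and uracil.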

Regarding WKLASVFAVSMR, the amyloid nucleation score entry is “inactive”.

As for WWADA, the amyloid nucleation score result is “inactive”.

As for CCMVVTQYYARMMVWGNRPY, the amyloid nucleation score result was “inactive”.

As to LMWTGF, the amyloid nucleation score entry was “inactive”.

For the substance IEVLKNLRMVTGLVTL, the amyloid nucleation score result is “inactive”.

Regarding TCSSACFVENRDTNHNGHGG, the amyloid nucleation score result is “inactive”.

Turning to VRKVSTAPAELHAIKSGDTH, the amyloid nucleation score result is “inactive”.

In the case of MQAQRKYMSMRNRYQVAKVE, the amyloid nucleation score result is “inactive”.

The substance GRIVMHVICNIFNCNYFGNS had an amyloid nucleation score of 2.94 ± 0.072.

Take YFLYLFRSVQCMLCHALNFN: the amyloid nucleation score was found to be 0.586 ± 0.15.

On to FNITGRVSYSIVTLCFMQCK, for which the amyloid nucleation score came to 2.75 ± 0.069.

For the substance YCYRYGWYHMNEDRIWDVRL, the amyloid nucleation score result is “inactive”.

In the case of YLASEVYRV, the amyloid nucleation score result is “inactive”.

Turning to IIFQTVR, the amyloid nucleation score entry is “inactive”.

For ECYFFHFTR, the amyloid nucleation score was 1.34 ± 0.12.

For CHLCGMYSVCFLARSRLVLE, the amyloid nucleation score came to 0.067 ± 0.77.

DLSVYYVLLFVCDGL: the amyloid nucleation score was -1.35 ± 1.8.

Take RSCLCEWWDVGSSVSASTLL: the amyloid nucleation score entry is “inactive”.

Regarding LSEIGIPVAVSFKPADSLGL, the amyloid nucleation score result was “inactive”.

PLCWNLNIRDTGIYRPRMRP: the amyloid nucleation score entry was “inactive”.

On to RFEFDQVFMF, for which the amyloid nucleation score came out at 1.32 ± 0.13.

On to WHSKWVWNHNWLGSINCRYE, for which the amyloid nucleation score result is “inactive”.

For TWRFVPRPLLVCMLYRYLCK, the amyloid nucleation score entry is “inactive”.

As to FFKDSIVLGVSLRYQFSYLT, the amyloid nucleation score entry was “inactive”.

The substance CILSVHGGILLFSIGAAFGR displayed an amyloid nucleation score of 0.779 ± 0.27.

Take AGGCFISARSIRNCAHMLSR: the amyloid nucleation score result is “inactive”.

On to GIKVLTTCGHKKFVGINSVM, for which the amyloid nucleation score result is “inactive”.

Consider HLNLTHNWNVYGKDLNGQFF, for which the amyloid nucleation score turned out to be 2.13 ± 0.072.

On to PSLCFSAVQLRLPRDVFLKY, for which the amyloid nucleation score result is “inactive”.

For the substance FLGTVLLGWFIAMMSRCLGR, the amyloid nucleation score turned out to be 0.048 ± 0.45.

As for FRVNKYNISFLVRQSGIWLA, the amyloid nucleation score entry was “inactive”.

Take SMFTAIASTTFNLQSLYLM: the amyloid nucleation score result was “inactive”.

As for SFISVCNAVLHIR, the amyloid nucleation score result was “inactive”.

As for FRYPYNPVIREFCTCSSWFL, the amyloid nucleation score was determined as 1.73 ± 0.069.

In turn, DYCGDCMILFCTLVGYDRCT gave an amyloid nucleation score of 2.06 ± 0.068.

As for CWRVYYLNVWVEVES, the amyloid nucleation score entry was “inactive”.

Turning to LHAFLEVSVRYTKSRST, the amyloid nucleation score entry was “inactive”.

For CKCEQVFLGLNLRYKEHDAW, the amyloid nucleation score entry was “inactive”.

As for IATLEDFMFPLFWYCIYLTN, the amyloid nucleation score entry was “inactive”.

Regarding VLVFSLISFLSWDWCSYLV, the amyloid nucleation score result is “inactive”.

Take TYYRCSSANLSSGRAEVYKY: the amyloid nucleation score entry is “inactive”.

VRFNSYAFYITIVGGKHTTT gave an amyloid nucleation score of 2.38 ± 0.059.

YISFFGGFANNGYCWWICAS yielded an amyloid nucleation score of 1.81 ± 0.069.

For AVSTTTSMVINRLRACKYAY, the amyloid nucleation score entry is “inactive”.

Regarding YGCKANSPLL, the amyloid nucleation score result is “inactive”.

Consider FTGFN, for which the amyloid nucleation score result is “inactive”.

As for SSMICVQFGM, the amyloid nucleation score result is “inactive”.

In the case of REVVRDWERCY, the amyloid nucleation score entry is “inactive”.

For HRKMHDT, the amyloid nucleation score entry was “inactive”.

On to NLDIFGNKMLMGRRGMLNMS, for which the amyloid nucleation score result was “inactive”.

RQVSPTVVCSIILSLPFDPC registered an amyloid nucleation score of 0.396 ± 0.22.

For EHLQRGSHLFSFSRSEI, the amyloid nucleation score entry was “inactive”.

As for CSRALYGCDRISRGLLEVCG, the amyloid nucleation score result was “inactive”.

Take SLNNSMVWKYH: the amyloid nucleation score entry is “inactive”.

Consider KYYINVVNRRYLNYFGTWLF, for which the amyloid nucleation score stood at 0.617 ± 0.12.

Regarding YMRDCYSNSGWNIYRSKRLS, the amyloid nucleation score result was “inactive”.

In the case of NLMGRCTEFRKYI, the amyloid nucleation score entry is “inactive”.

Regarding STLQRDIICKCIHAKVTVWV, the amyloid nucleation score result is “inactive”.

Turning to RWSVLAVSCM, the amyloid nucleation score result was “inactive”.

For the substance FTQYFLTRCDYYVEYYMLDR, the amyloid nucleation score result was “inactive”.

As for LNDLCKMPVSLFIHGLCLMT, the amyloid nucleation score entry was “inactive”.

Regarding YRWYQINSGSYLYLASRWCW, the amyloid nucleation score entry was “inactive”.

NVTCGRLTPSRDLKHAPVI displayed an amyloid nucleation score of -0.32 ± 1.1.

Turning to FYCIVFQYGSLDLARH, the amyloid nucleation score turned out to be 2.69 ± 0.064.

As for CFFEVKRSHSIRVFRIGCGV, the amyloid nucleation score entry is “inactive”.

For LEGSKKSDSSLARSWYFFET, the amyloid nucleation score result was “inactive”.

With IHIGTPFRGSHTFASVRRK, the amyloid nucleation score result was “inactive”.

With MSIVIYARLTWNYDSVFSFG, the amyloid nucleation score result is “inactive”.

On to DSLYWCSPFNGHCSDNNTQN, for which the amyloid nucleation score entry was “inactive”.

Turning to LDLLHFGYFIYFDEL, the amyloid nucleation score entry was “inactive”.

In the case of YGYVLTSTVGVILVYWSYSC, the amyloid nucleation score entry is “inactive”.

Regarding QTSNMVAWCLSLFRAGRPTK, the amyloid nucleation score result is “inactive”.

Turning to GLSRCSPWKASSDDRRRLSD, the amyloid nucleation score entry is “inactive”.

CNMGYSIFVFILNLSPV came in with an amyloid nucleation score of 1.99 ± 0.09.

Turning to LSMSYLMSVLLCDLQKVYNT, the amyloid nucleation score result was “inactive”.

DIYMMLICGWGLGKLIPGFM: the amyloid nucleation score result is “inactive”.

As to FSIVMTRFSFGSRVGSFYNF, the amyloid nucleation score was found to be 0.151 ± 0.44.

On to IQIVSWQSAL, for which the amyloid nucleation score result was “inactive”.

For NSGCQMFL, the amyloid nucleation score entry is “inactive”.

Regarding YYFFRKYEENFSGSNTGLVI, the amyloid nucleation score result was “inactive”.

In the case of DGMNSPRMEIRDRDRSAYIL, the amyloid nucleation score entry is “inactive”.

Take SDRRLK: the amyloid nucleation score result is “inactive”.

In the case of GRYLSANLVVKSGCR, the amyloid nucleation score result was “inactive”.

On to VALAGNYCSANVVHCMFLNL, for which the amyloid nucleation score result was “inactive”.

For the substance FLNLIYNLGRLWFQQLTRFK, the amyloid nucleation score entry was “inactive”.

For ISKSVLMMNTAKIPPPMF, the amyloid nucleation score entry is “inactive”.

With PLFFMPGNKWTYFSKSSADT, the amyloid nucleation score entry is “inactive”.

With ARMVVVLKRFCGVCMMSLFL, the amyloid nucleation score entry was “inactive”.

Turning to QSGSVCIGSHASLRRAVVRR, the amyloid nucleation score result was “inactive”.

YSQLRARMKCVYLGY: the amyloid nucleation score entry was “inactive”.

On to IAYIT, for which the amyloid nucleation score result is “inactive”.

ISMFDPLRCPWSNYGMCG: the amyloid nucleation score result is “inactive”.

As for SSGWNFPCSPSVMPDVVGVG, the amyloid nucleation score result is “inactive”.

For the substance KSRKFYKTSLCLMNTYLMNM, the amyloid nucleation score result is “inactive”.

Regarding QNCIHKRRSLGSTCATEWDV, the amyloid nucleation score is -0.399 ± 1.

Consider QYLCWCCVARRPGSGFRTVV, for which the amyloid nucleation score result is “inactive”.

In the case of SPDGIGTMRGNFLGTPWRCR, the amyloid nucleation score result was “inactive”.

Regarding SCEDVVANVLLYCRISGHWG, the amyloid nucleation score entry was “inactive”.

In the case of GTIYMFENGSSVS, the amyloid nucleation score result is “inactive”.

In the case of LLNYFRLMCYRSFL, the amyloid nucleation score entry is “inactive”.

As for WTNIRFAF, the amyloid nucleation score entry was “inactive”.

As to RFPEAVPNKWSGPPTFNPHE, the amyloid nucleation score entry is “inactive”.

CLFGHGY: the amyloid nucleation score entry was “inactive”.

On to GLTTLCSVPKQYVKYFVVTH, for which the amyloid nucleation score result was “inactive”.

As to GRYFSRNYAMCLLLFTTGEV, the amyloid nucleation score entry is “inactive”.

GGCCAYCSLDLVWMFDDRSV came in with an amyloid nucleation score of 2.16 ± 0.081.

With LNYVCCCIQSPPEFNIS, the amyloid nucleation score was 3.36 ± 0.07.

For the substance KINRVSLLVLGH, the amyloid nucleation score result was “inactive”.

In the case of SMGSPVNVIWTSSYS, the amyloid nucleation score entry is “inactive”.

On to KYHMFRWGLSC, for which the amyloid nucleation score result is “inactive”.

As for RRFIIPRAVAFTSL, the amyloid nucleation score entry is “inactive”.

For VINCSAHTEFRGLNFRVTCT, the amyloid nucleation score entry was “inactive”.

As for VWVSVWVVLTAV, the amyloid nucleation score result is “inactive”.

Take WIVKL: the amyloid nucleation score result was “inactive”.

As for CCYLLHGGRILMIVVMSHHL, the amyloid nucleation score result is “inactive”.

Regarding GCSRHYKFS, the amyloid nucleation score result was “inactive”.

Consider PNDVRNAFFCPPPTKKPTVA, for which the amyloid nucleation score result is “inactive”.

As to SFGLF, the amyloid nucleation score result is “inactive”.

As to LRVLAP, the amyloid nucleation score came to 0.815 ± 0.16.

As for CISKCLVNNV, the amyloid nucleation score result is “inactive”.

In the case of FRFSR, the amyloid nucleation score entry is “inactive”.

Turning to AEYKNGTLRRRTRRVKSRRI, the amyloid nucleation score result was “inactive”.

On to MWLVFLTKQNYNNKVQTG, for which the amyloid nucleation score result is “inactive”.

Take YLVGCWNYESKN: the amyloid nucleation score came out at 0.234 ± 0.25.

As to WYGDNRGIMYVLGSRINWRY, the amyloid nucleation score worked out at 1.34 ± 0.087.

Regarding SCVARYDRAAHRRVIETRLG, the amyloid nucleation score result was “inactive”.

With ETYHCIV, the amyloid nucleation score entry is “inactive”.

On to FALLMCDSHRSCNNVNNFVH, for which the amyloid nucleation score result is “inactive”.

In turn, IGYKLNFCASILDFSYCKIY showed an amyloid nucleation score of 1.07 ± 0.19.

On to FWSHLTLTSSSFKFGTVSR, for which the amyloid nucleation score entry is “inactive”.

As to DPFRLLGEY, the amyloid nucleation score result was “inactive”.

The values above are taken from the supplement of paper PMC12042874.
